Experiment [1] addresses T1, human FcγRIIIaV extracellular domain, C-terminal His-tag (human, UniProt P08637 17-208).
T1 construct: Soluble extracellular domain expressed in FreeStyle 293 cells; also called FcgRIIIaV; not shown: His-tag added to the C-terminus
Briefly: SPR (BIACORE), antibody captured by mouse anti-human IgG kappa light chain, FcgR extracellular domain as analyte, 25 C. The method, then: (§1) The kinetic analysis of interactions between these antibodies and FcγR was carried out using BIACORE® T200 or BIACORE® 4000 (GE Healthcare). HBS-EP+ (GE Healthcare) was used as the running buffer, and the measurement temperature was set to 25° C. A chip produced by immobilizing Protein A. Protein A/G or mouse anti-human IgG kappa light chain (BD Biosciences) onto a Series S Sensor Chip CM4 or CM5 (GE Healthcare) by the amine-coupling method was used. […] After the measurement, the antibody captured on the chip was washed off by allowing reaction with 10 mM glycine-HCl, pH1.5 and 25 mM NaOH so that the chip was regenerated and used repeatedly. The sensorgrams obtained as measurement results were analyzed by the 1:1 Langmuir binding model using the BIACORE® Evaluation Software to calculate the binding rate constant ka (L/mol/s) and dissociation rate constant kd (l/s), and the dissociation constant KD (mol/L) was calculated from these values. […] Regarding such interactions, KD values were calculated using the following 1:1 binding model described in BIACORE® T100 Software Handbook BR1006-48 Edition AE.
(§2) Furthermore, the substitutions used in Example 29 for improving antibody half-life and reducing binding to rheumatoid factor were introduced into human FcγRIIb-enhanced Fc variants and their affinity against human FcγRs were analyzed (Table 29). In this SPR analysis, all the data were obtained using mouse anti-human IgG kappa light chain for capturing the antibodies of interest.
Background: In SPR one partner is held on a chip, and binding of the other changes the refractive index at the surface.

Experiment [2] addresses T2, human FcγRIIaR extracellular domain, C-terminal His-tag (human, UniProt P12318 34-217).
T2 construct: Soluble extracellular domain expressed in FreeStyle 293 cells; also called FcgRIIaR; human FcγRIIa (type R); not shown: His-tag added to the C-terminus
T2 chain: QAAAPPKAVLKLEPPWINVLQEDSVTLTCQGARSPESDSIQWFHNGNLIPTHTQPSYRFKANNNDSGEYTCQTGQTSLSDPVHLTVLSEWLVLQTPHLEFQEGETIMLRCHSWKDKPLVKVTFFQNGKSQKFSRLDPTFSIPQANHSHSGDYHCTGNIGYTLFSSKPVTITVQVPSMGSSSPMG
Described as above. The method, then: as §1, §2

Experiment [3] has as its target T3, human FcγRIIaH extracellular domain, C-terminal His-tag (human, UniProt P12318 34-217).
T3 construct: Soluble extracellular domain expressed in FreeStyle 293 cells; also called FcgRIIaH; human FcγRIIa (type H); not shown: His-tag added to the C-terminus
T3 sequence: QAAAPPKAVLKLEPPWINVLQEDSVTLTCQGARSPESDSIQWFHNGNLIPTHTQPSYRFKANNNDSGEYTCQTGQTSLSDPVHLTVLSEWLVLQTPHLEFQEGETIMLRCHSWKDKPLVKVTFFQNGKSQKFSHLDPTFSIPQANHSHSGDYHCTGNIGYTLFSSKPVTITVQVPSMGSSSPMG
Described as above. The method, then: as §1, §2

Experiment [4] deals with T4, human FcγRIIb extracellular domain, C-terminal His-tag (human, UniProt P31994 43-217).
T4 construct: Soluble extracellular domain expressed in FreeStyle 293 cells; also called FcgRIIb; not shown: His-tag added to the C-terminus
T4 sequence: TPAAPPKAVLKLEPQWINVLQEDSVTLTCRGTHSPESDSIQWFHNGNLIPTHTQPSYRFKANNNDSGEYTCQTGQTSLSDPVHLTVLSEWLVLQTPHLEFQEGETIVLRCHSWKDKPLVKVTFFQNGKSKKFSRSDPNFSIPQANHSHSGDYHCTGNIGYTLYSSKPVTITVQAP
The description is as above. The method, then: as §1, §2

The target in experiment [5] is T1, human FcγRIIIaV extracellular domain, …. Nature of the experiment: SPR (BIACORE); KD of SG1 divided by KD of the variant. The method, then: as §1, §2
Experiment [6] addresses T2, human FcγRIIaR extracellular domain, …. The experiment is described as above. The method, then:
as §1, §2

The target in experiment [7] is T3, human FcγRIIaH extracellular domain, …. The experiment is described as above. The method, then:
as §1, §2

The target of experiment [8] is T4, human FcγRIIb extracellular domain, …. Described as above. The method, then: as §1, §2

5 molecules from US20200317768A1 (published 2020) can be followed below.

The term Kd denotes the concentration at which binding is half-saturated. Lower therefore signals higher affinity.

T1 sequence (P08637 17-208 F176V): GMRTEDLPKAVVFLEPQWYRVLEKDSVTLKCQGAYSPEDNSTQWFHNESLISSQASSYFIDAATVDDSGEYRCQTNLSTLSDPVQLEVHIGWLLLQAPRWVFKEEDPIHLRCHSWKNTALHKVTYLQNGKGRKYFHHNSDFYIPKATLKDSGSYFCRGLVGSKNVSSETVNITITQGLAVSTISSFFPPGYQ

B1: MS103240H795-SG1/M103202L1045-SK1 (antibody, human IgG1, kappa)
heavy: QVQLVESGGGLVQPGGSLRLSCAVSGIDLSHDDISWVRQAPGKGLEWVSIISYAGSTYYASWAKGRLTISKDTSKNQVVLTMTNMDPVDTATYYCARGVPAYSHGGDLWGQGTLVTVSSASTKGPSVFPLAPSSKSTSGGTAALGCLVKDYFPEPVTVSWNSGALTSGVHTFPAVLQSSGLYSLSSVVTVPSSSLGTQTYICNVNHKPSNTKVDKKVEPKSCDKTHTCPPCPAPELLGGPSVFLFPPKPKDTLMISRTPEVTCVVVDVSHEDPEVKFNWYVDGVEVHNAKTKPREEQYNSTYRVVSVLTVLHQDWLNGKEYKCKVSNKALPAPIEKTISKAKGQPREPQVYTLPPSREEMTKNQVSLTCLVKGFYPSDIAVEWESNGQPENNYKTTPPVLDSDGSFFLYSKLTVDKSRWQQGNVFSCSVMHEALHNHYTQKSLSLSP
light: DIVMTQSPATLSLSPGERATLSCTTSQSVYHENWLSWFQQKPGQPPKLLIYWASTLAYGVPSRFSGSGSGTDFTLTISSLQPEDAATYYCAGGYGGGRYAFGQGTKVEIKRTVAAPSVFIFPPSDEQLKSGTASVVCLLNNFYPREAKVQWKVDNALQSGNSQESVTEQDSKDSTYSLSSTLTLSKADYEKHKVYACEVTHQGLSSPVTKSFNRGEC
notes: Parent constant region SG1 (human IgG1-like); also called MS1032LO19-SG1; copies: 2 + 2
With B1, the equilibrium dissociation constant (Kd) in experiment [1] amounted to 0.72 µM; in experiment [2], 1.2 µM; in experiment [3], 0.97 µM; in experiment [4] it was 4.7 µM. Moreover, the “KD fold for humanFcgRs (SG1 = 1)” value in experiment [5], in experiment [6], in experiment [7] and in experiment [8] was 1 fold each time.

B2: MS103240H795-TT68/M103202L1045-SK1 (antibody)
heavy: QVQLVESGGGLVQPGGSLRLSCAVSGIDLSHDDISWVRQAPGKGLEWVSIISYAGSTYYASWAKGRLTISKDTSKNQVVLTMTNMDPVDTATYYCARGVPAYSHGGDLWGQGTLVTVSSASTKGPSVFPLAPSSKSTSGGTAALGCLVKDYFPEPVTVSWNSGALTSGVHTFPAVLQSSGLYSLSSVVTVPSSSLGTQTYICNVNHKPSNTKVDKKVEPKSCDKTHTCPPCPAPELLGGDSVFLFPPKPKDVLMISRTPEVTCVVVDVSHEDPEVKFNWYVDGVEVHNAKTKPREEQYNSTYRVVSVLPVLHRDWLNGKEYKCKVSNKALPKPIEKTISKAKGQPREPQVYTLPPSREEMTKNQVSLTCLVKGFYPSDIAVEWESNGQPENNYKTTPPVLDSDGSFFLYSKLTVKKSRWQQGNVFSCSVMHEALHAHYTRKELSLSP
light: DIVMTQSPATLSLSPGERATLSCTTSQSVYHENWLSWFQQKPGQPPKLLIYWASTLAYGVPSRFSGSGSGTDFTLTISSLQPEDAATYYCAGGYGGGRYAFGQGTKVEIKRTVAAPSVFIFPPSDEQLKSGTASVVCLLNNFYPREAKVQWKVDNALQSGNSQESVTEQDSKDSTYSLSSTLTLSKADYEKHKVYACEVTHQGLSSPVTKSFNRGEC
notes: copies: 2 + 2
As to B2, the equilibrium dissociation constant (Kd) was 480 µM in experiment [1], 61 µM in experiment [2], 210 µM in experiment [3] and 0.96 µM in experiment [4]. Also, the “KD fold for humanFcgRs (SG1 = 1)” value in experiment [5] was 0.001 fold; in experiment [6], 0.02 fold; in experiment [7] it was 0.005 fold; in experiment [8] it was 4.9 fold.

B3: MS103240H795-TT67/M103202L1045-SK1 (antibody)
heavy: QVQLVESGGGLVQPGGSLRLSCAVSGIDLSHDDISWVRQAPGKGLEWVSIISYAGSTYYASWAKGRLTISKDTSKNQVVLTMTNMDPVDTATYYCARGVPAYSHGGDLWGQGTLVTVSSASTKGPSVFPLAPSSKSTSGGTAALGCLVKDYFPEPVTVSWNSGALTSGVHTFPAVLQSSGLYSLSSVVTVPSSSLGTQTYICNVNHKPSNTKVDKKVEPKSCDKTHTCPPCPAPELLGGDSVFLFPPKPKDVLMISRTPEVTCVVVDVSHEDPEVKFNWYVDGVEVHNAKTKPREEQYNSTYRVVSVLPVLHRDWLNGKEYKCKVSNKALPKPIEKTISKAKGQRREPQVYTLPPSREEMTKNQVSLTCLVKGFYPSDIAVEWESNGQPENNYKTTPPVLDSDGSFFLYSKLTVDKSRWQQGNVFSCSVLHEALHAHTTRKELSLSP
light: DIVMTQSPATLSLSPGERATLSCTTSQSVYHENWLSWFQQKPGQPPKLLIYWASTLAYGVPSRFSGSGSGTDFTLTISSLQPEDAATYYCAGGYGGGRYAFGQGTKVEIKRTVAAPSVFIFPPSDEQLKSGTASVVCLLNNFYPREAKVQWKVDNALQSGNSQESVTEQDSKDSTYSLSSTLTLSKADYEKHKVYACEVTHQGLSSPVTKSFNRGEC
Turning to B3, the Kd in experiment [1] came out at 610 µM; in experiment [2] it was 28 µM; in experiment [3], 120 µM; in experiment [4] it was 1.2 µM. Further, the “KD fold for humanFcgRs (SG1 = 1)” value in experiment [5] worked out at 0.001 fold; in experiment [6] it was 0.04 fold; in experiment [7], 0.008 fold; in experiment [8], 3.9 fold.

B4: MS103240H795-TT66/M103202L1045-SK1 (antibody)
heavy: QVQLVESGGGLVQPGGSLRLSCAVSGIDLSHDDISWVRQAPGKGLEWVSIISYAGSTYYASWAKGRLTISKDTSKNQVVLTMTNMDPVDTATYYCARGVPAYSHGGDLWGQGTLVTVSSASTKGPSVFPLAPSSKSTSGGTAALGCLVKDYFPEPVTVSWNSGALTSGVHTFPAVLQSSGLYSLSSVVTVPSSSLGTQTYICNVNHKPSNTKVDKKVEPKSCDKTHTCPPCPAPELLGGDSVFLFPPKPKDVLMISRTPEVTCVVVDVSHEDPEVKFNWYVDGVEVHNAKTKPREEQYNSTYRVVSVLPVLHRDWLNGKEYKCKVSNKALPKPIEKTISKAKGQRREPQVYTLPPSREEMTKNQVSLTCLVKGFYPSDIAVEWESNGQPENNYKTTPPVLDSDGSFFLYSKLTVDKSRWQQGNVFSCSVMHEALHAHYTRKELSLSP
light: DIVMTQSPATLSLSPGERATLSCTTSQSVYHENWLSWFQQKPGQPPKLLIYWASTLAYGVPSRFSGSGSGTDFTLTISSLQPEDAATYYCAGGYGGGRYAFGQGTKVEIKRTVAAPSVFIFPPSDEQLKSGTASVVCLLNNFYPREAKVQWKVDNALQSGNSQESVTEQDSKDSTYSLSSTLTLSKADYEKHKVYACEVTHQGLSSPVTKSFNRGEC
With B4, the equilibrium dissociation constant (Kd) in experiment [1] came to 590 µM; in experiment [2], 32 µM; in experiment [3] it was 130 µM; in experiment [4] it was 1 µM. In addition, the “KD fold for humanFcgRs (SG1 = 1)” value in experiment [5] worked out at 0.001 fold; in experiment [6] it was 0.04 fold; in experiment [7], 0.007 fold; in experiment [8], 4.7 fold.

B5: MS103240H795-TT33/M103202L1045-SK1 (antibody, human IgG1, kappa)
heavy: QVQLVESGGGLVQPGGSLRLSCAVSGIDLSHDDISWVRQAPGKGLEWVSIISYAGSTYYASWAKGRLTISKDTSKNQVVLTMTNMDPVDTATYYCARGVPAYSHGGDLWGQGTLVTVSSASTKGPSVFPLAPSSKSTSGGTAALGCLVKDYFPEPVTVSWNSGALTSGVHTFPAVLQSSGLYSLSSVVTVPSSSLGTQTYICNVNHKPSNTKVDKKVEPKSCDKTHTCPPCPAPEYLGGDSVFLFPPKPKDVLMISRTPEVTCVVIDVSHEDPEVKFNWYVDGVEVHNAKTKPREEQYNSTYRVVSVLPVLHRDWLNGKEYKCKVSNKALPKPIEKTISKAKGQPREPQVYTLPPSREEMTKNQVSLTCLVKGFYPSDIAVEWESNGQPENNYKTTPPVLDSDGSFFLYSKLTVKKSRWQQGNVFSCSVMHEALHNHYTQKSLSLSP
light: DIVMTQSPATLSLSPGERATLSCTTSQSVYHENWLSWFQQKPGQPPKLLIYWASTLAYGVPSRFSGSGSGTDFTLTISSLQPEDAATYYCAGGYGGGRYAFGQGTKVEIKRTVAAPSVFIFPPSDEQLKSGTASVVCLLNNFYPREAKVQWKVDNALQSGNSQESVTEQDSKDSTYSLSSTLTLSKADYEKHKVYACEVTHQGLSSPVTKSFNRGEC
notes: copies: 2 + 2
B5: the dissociation constant Kd in experiment [1] was 400 µM; in experiment [2], 23 µM; in experiment [3], 35 µM; in experiment [4] it was 0.3 µM. Besides, the “KD fold for humanFcgRs (SG1 = 1)” value in experiment [5] was 0.002 fold; in experiment [6] it was 0.05 fold; in experiment [7] it was 0.028 fold; in experiment [8], 15.7 fold.
